Test [1] concerns the target T1, full length human medin (50 aa) (human).
T1 construct: Synthetic peptide (American Peptide, Cat # 366587 in the Western blot); Monomer and multimer/oligomer bands seen in Western blot; also called medin peptide; full-length human medin peptide
T1 peptide: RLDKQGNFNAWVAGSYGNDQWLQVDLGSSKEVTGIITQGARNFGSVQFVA
The test can be described thus: Biacore SPR, antibody captured on anti-mouse chip, medin as analyte, global 1:1 fit. As for the experimental part: Anti-mouse antibody (GE Heathcare) was immobilized on a sensor chip […] (lacking dextran chains) via amine coupling following the instructions provided in the GE Healthcare anti-mouse kit. Anti-medin monoclonal antibodies of interest were then captured on the chip at a level that ensured a maximum binding of analyte at 30-50 RU. Various concentrations of analyte, full-length human medin (50 aa, FIGS. 1A and B) were passed over the captured ligand at 30 ul/min in running buffer (Hepes buffered saline+0.05% P-20, 1 mg/mL BSA) in either 2-fold or 3-fold dilutions, depending on the magnitude of the spanned concentration range. For each concentration, the reaction proceeded for a period of time needed for the higher analyte concentrations to reach equilibrium during association, as well as at least 10% of signal to decay during dissociation. At least one concentration (not the highest or lowest) was run in duplicate. […] The data were doubled referenced to both an irrelevant sensor not containing the medin antibodies and a 0 nM concentration of medin to account for the dissociation of antibodies from the anti-mouse sensor. The data was then analyzed with a global 1:1 fit using the Biacore software.
On the technique in general: In SPR one partner is held on a chip, and binding of the other changes the refractive index at the surface.

Test [2] concerns the target T1, full length human medin (50 aa). The experiment in a line: direct ELISA, plate coated with full length human medin at 2.5 ug/mL, goat anti-mouse HRP, ABTS, OD 405 nm. How it is done: (§1) To further characterize antibodies of interest, ELISA titration curves were generated to determine antibody binding to human lactadherin (FIG. 1A, Sino Biological In.), full-length human medin peptide (50 aa, FIGS. 1A and B) or to the human or mouse C-terminal peptides (see FIG. 1B). Plates were coated with full length human medin, human C-terminal peptide-OVA, mouse C-terminal peptide-OVA and lactadherin at 2.5 ug/mL, 50 uL/well and incubated for about 1 hour at room temperature. The plates were then blocked with 1% BSA/PBS at room temperature. After about 15 minutes, plates were emptied and antibodies of interest were then added to the plates and after a 1 hour incubation at room temperature, the plates were washed with wash buffer. The detection antibody, goat anti-mouse antibody conjugated to horseradish peroxidase (Jackson ImmunoResearch) diluted 1:2,000 in 0.5% BSA/PBS/TBS-T was added to plates and incubated for 1 hour at room temperature. Finally, the plates were washed and then incubated with ABTS substrate (Thermo Scientific) for 15 minutes at room temperature to visualize signal and read at 405 nm on a microplate reader.
A general note: In an ELISA, binding on a coated surface is turned into a signal by an enzyme label.

For test [3], the target named is T2, human C-terminal medin peptide (human, also: conjugated to OVA in the ELISA).
T2 construct: also called human c-terminal peptide; human C-terminal peptide-OVA
T2 peptide: CGGSVQFVA
The experiment in a line: direct ELISA, plate coated with human C-terminal peptide-OVA at 2.5 ug/mL, goat anti-mouse HRP, ABTS, OD 405 nm. As for the experimental part: as §1

Test [4] deals with T3, mouse C-terminal medin peptide (mouse, also: conjugated to OVA in the ELISA).
T3 construct: also called mouse c-terminal peptide; mouse C-terminal peptide-OVA
T3 peptide: CGGHIQYVA
The experiment in a line: direct ELISA, plate coated with mouse C-terminal peptide-OVA at 2.5 ug/mL, goat anti-mouse HRP, ABTS, OD 405 nm. How it is done:
as §1

Test [5] deals with T4, human lactadherin polypeptide (Sino Biological) (human, UniProt Q08431 24-387).
T4 construct: Bought protein; also called MFG-E8; synthetic lactadherin polypeptide
T4 sequence (looked up): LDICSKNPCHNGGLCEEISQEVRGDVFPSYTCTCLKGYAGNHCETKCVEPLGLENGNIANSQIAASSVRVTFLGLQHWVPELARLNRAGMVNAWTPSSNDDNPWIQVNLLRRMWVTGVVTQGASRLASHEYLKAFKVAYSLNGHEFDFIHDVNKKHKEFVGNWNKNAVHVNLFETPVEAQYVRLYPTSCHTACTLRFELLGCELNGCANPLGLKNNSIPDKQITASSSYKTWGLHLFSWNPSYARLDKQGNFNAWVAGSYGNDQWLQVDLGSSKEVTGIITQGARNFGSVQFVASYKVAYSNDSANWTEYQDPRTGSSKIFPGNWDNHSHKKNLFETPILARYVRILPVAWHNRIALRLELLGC
The test can be described thus: direct ELISA, plate coated with human lactadherin at 2.5 ug/mL, goat anti-mouse HRP, ABTS, OD 405 nm. How it is done: as §1

Ends that are not written are not given here.

The term Kd denotes a measure of binding affinity in units of concentration. The term koff denotes the rate constant with which the complex falls apart. Low readings indicate a long-lived complex, high ones a short-lived complex. As usually defined, the kon is the second-order rate constant of association. A lower kon goes with slower complex formation. By EC50 (read off the curve) is commonly meant the midpoint of the concentration-response curve.

B1: mouse monoclonal antibody 18G1 (antibody, V domains shown)
VH: EVQLVESGGGLVKPGGSLKLSCAASGFTFSSYAMSWVRQTPEKRLEWVAGISSGDYYTYYPDTVKGRFTISRDNARNTLYLQMRSLRSEDTAMYYCVRGRGNTGPRVGYWGQGTSVTVSS
VL: DIVMTQSQKFMSTSVGDRVSVTCKASQNVGTNVAWYQQKPGQSPKALIYSASYRYSGVPDRFTGSGSGTDFTLTISNVQSEDLAEYFCQQYNSFPLTFGAGTKLELK
notes: Mouse hybridoma IgG raised against the human C-terminal medin peptide; also called m18G1; PRT18G1
As for B1, in test [1], the Kd is 12.1 nM, the koff was found to be 0.00712 s⁻¹ and the kon was 590000 M⁻¹ s⁻¹. In addition, the “EC50 (read off the curve)” value in test [2] was around 0.04 µg/mL. Moreover, the “EC50 (read off the curve)” value in test [3] is around 0.07 µg/mL. Besides, the “EC50 (read off the curve)” value in test [4] is around 0.05 µg/mL.

B2: mouse monoclonal antibody 6B3 (antibody, V domains shown)
VH: QVTLKESGPGILQPSQTLSLTCSFSGFSLSTSDMGVGWIRQPSGKGLEWLAHIWWNDNKYYNIALKNRLTVSKDTSNNQVFLKIASVDTADTATYYCARLVGSWFAYWGQGTLVTVSA
VL: DIQMTQTTSSLSASLGDRVTISCRASQDISNFLSWYHQKPDGTVKLLIYYTSRLHSGVPPRFSGSGSGTDYSLTISNLEQEDIATYFCQQGKTLPPTFGGGTKLEIK
notes: Mouse hybridoma IgG raised against full-length human medin; also called m6B3; PRT6B3
Turning to B2, in test [1], the Kd is 1.04 nM. The koff in test [1] was found to be 0.000951 s⁻¹. This molecule came in with an on-rate (kon) in test [1] of 1.11e+06 M⁻¹ s⁻¹. For the same molecule, the results for the “EC50 (read off the curve)” value in test [5] and in test [2] were around 0.2 µg/mL and around 0.1 µg/mL, respectively. Also, the binding result in test [3] and in test [4] was “no binding (tested: 10 ug/ml)” in each case.
